Assay results as given in IntAct's records for PubMed 25910212.

B1: Inactive peptidyl-prolyl cis-trans isomerase FKBP6 (Homo sapiens), O75344 (parent)
chain: MGGSALNQGVLEGDDAPGQSLYERLSQRMLDISGDRGVLKDVIREGAGDLVAPDASVLVKYSGYLEHMDRPFDSNYFRKTPRLMKLGEDITLWGMELGLLSMRRGELARFLFKPNYAYGTLGCPPLIPPNTTVLFEIELLDFLDCAESDKFCALSAEQQDQFPLQKVLKVAATEREFGNYLFRQNRFYDAKVRYKRALLLLRRRSAPPEEQHLVEAAKLPVLLNLSFTYLKLDRPTIALCYGEQALIIDQKNAKALFRCGQACLLLTEYQKARDFLVRAQKEQPFNHDINNELKKLASCYRDYVDKEKEMWHRMFAPCGDGSTAGES
partner: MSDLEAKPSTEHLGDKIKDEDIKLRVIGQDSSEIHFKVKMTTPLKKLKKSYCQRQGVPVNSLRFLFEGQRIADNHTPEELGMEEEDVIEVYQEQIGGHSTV
B2: Bleomycin hydrolase (Homo sapiens), Q13867 (parent)
chain: MSSSGLNSEKVAALIQKLNSDPQFVLAQNVGTTHDLLDICLKRATVQRAQHVFQHAVPQEGKPITNQKSSGRCWIFSCLNVMRLPFMKKLNIEEFEFSQSYLFFWDKVERCYFFLSAFVDTAQRKEPEDGRLVQFLLMNPANDGGQWDMLVNIVEKYGVIPKKCFPESYTTEATRRMNDILNHKMREFCIRLRNLVHSGATKGEISATQDVMMEEIFRVVCICLGNPPETFTWEYRDKDKNYQKIGPITPLEFYREHVKPLFNMEDKICLVNDPRPQHKYNKLYTVEYLSNMVGGRKTLYNNQPIDFLKKMVAASIKDGEAVWFGCDVGKHFNSKLGLSDMNLYDHELVFGVSLKNMNKAERLTFGESLMTHAMTFTAVSEKDDQDGAFTKWRVENSWGEDHGHKGYLCMTDEWFSEYVYEVVVDRKHVPEEVLAVLEQEPIILPAWDPMGALAE
B3: Neurogenin-3 (Homo sapiens), Q9Y4Z2 (parent)
chain: MTPQPSGAPTVQVTRETERSFPRASEDEVTCPTSAPPSPTRTRGNCAEAEEGGCRGAPRKLRARRGGRSRPKSELALSKQRRSRRKKANDRERNRMHNLNSALDALRGVLPTFPDDAKLTKIETLRFAHNYIWALTQTLRIADHSLYALEPPAPHCGELGSPGGSPGDWGSLYSPVSQAGSLSPAASLEERPGLLGATFSACLSPGSLAFSDFL
B4: Progranulin (Homo sapiens), P28799 (parent)
chain: MWTLVSWVALTAGLVAGTRCPDGQFCPVACCLDPGGASYSCCRPLLDKWPTTLSRHLGGPCQVDAHCSAGHSCIFTVSGTSSCCPFPEAVACGDGHHCCPRGFHCSADGRSCFQRSGNNSVGAIQCPDSQFECPDFSTCCVMVDGSWGCCPMPQASCCEDRVHCCPHGAFCDLVHTRCITPTGTHPLAKKLPAQRTNRAVALSSSVMCPDARSRCPDGSTCCELPSGKYGCCPMPNATCCSDHLHCCPQDTVCDLIQSKCLSKENATTDLLTKLPAHTVGDVKCDMEVSCPDGYTCCRLQSGAWGCCPFTQAVCCEDHIHCCPAGFTCDTQKGTCEQGPHQVPWMEKAPAHLSLPDPQALKRDVPCDNVSSCPSSDTCCQLTSGEWGCCPIPEAVCCSDHQHCCPQGYTCVAEGQCQRGSEIVAGLEKMPARRASLSHPRDIGCDQHTSCPVGQTCCPSLGGSWACCQLPHAVCCEDRQHCCPAGYTCNVKARSCEKEVVSAQPATFLARSPHVGVKDVECGEGHFCHDNQTCCRDNRQGWACCPYRQGVCCADRRHCCPAGFRCAARGTKCLRREAPRWDAPLRDPALRQLL
partner: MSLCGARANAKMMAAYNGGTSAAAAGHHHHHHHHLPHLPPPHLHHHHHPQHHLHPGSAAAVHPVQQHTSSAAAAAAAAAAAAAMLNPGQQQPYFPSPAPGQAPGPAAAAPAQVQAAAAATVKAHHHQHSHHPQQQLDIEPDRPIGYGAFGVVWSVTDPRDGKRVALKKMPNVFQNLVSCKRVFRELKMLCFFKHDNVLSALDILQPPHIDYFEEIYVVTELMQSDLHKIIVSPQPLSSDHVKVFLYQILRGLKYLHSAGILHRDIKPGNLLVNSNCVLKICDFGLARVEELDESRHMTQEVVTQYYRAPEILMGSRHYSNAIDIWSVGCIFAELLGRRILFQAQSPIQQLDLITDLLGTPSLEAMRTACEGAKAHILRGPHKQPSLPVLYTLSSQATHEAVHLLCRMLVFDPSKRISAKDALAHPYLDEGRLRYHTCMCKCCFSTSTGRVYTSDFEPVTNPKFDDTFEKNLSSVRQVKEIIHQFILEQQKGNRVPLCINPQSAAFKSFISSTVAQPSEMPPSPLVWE
B5: Mothers against decapentaplegic homolog 3 (Homo sapiens), P84022 (parent)
chain: MSSILPFTPPIVKRLLGWKKGEQNGQEEKWCEKAVKSLVKKLKKTGQLDELEKAITTQNVNTKCITIPRSLDGRLQVSHRKGLPHVIYCRLWRWPDLHSHHELRAMELCEFAFNMKKDEVCVNPYHYQRVETPVLPPVLVPRHTEIPAEFPPLDDYSHSIPENTNFPAGIEPQSNIPETPPPGYLSEDGETSDHQMNHSMDAGSPNLSPNPMSPAHNNLDLQPVTYCEPAFWCSISYYELNQRVGETFHASQPSMTVDGFTDPSNSERFCLGLLSNVNRNAAVELTRRHIGRGVRLYYIGGEVFAECLSDSAIFVQSPNCNQRYGWHPATVCKIPPGCNLKIFNNQEFAALLAQSVNQGFEAVYQLTRMCTIRMSFVKGWGAEYRRQTVTSTPCWIELHLNGPLQWLDKVLTQMGSPSIRCSSVS
partner: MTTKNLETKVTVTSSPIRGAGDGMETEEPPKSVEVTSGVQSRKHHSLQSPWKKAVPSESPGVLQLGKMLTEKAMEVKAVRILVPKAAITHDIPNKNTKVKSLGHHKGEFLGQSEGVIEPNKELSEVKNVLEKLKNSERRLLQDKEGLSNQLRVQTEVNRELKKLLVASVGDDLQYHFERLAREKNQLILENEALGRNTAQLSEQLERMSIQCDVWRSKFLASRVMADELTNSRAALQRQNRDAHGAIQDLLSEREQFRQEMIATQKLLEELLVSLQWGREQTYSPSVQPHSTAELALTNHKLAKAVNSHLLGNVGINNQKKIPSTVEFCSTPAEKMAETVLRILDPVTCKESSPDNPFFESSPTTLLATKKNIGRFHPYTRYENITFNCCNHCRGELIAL
B6: U4/U6 small nuclear ribonucleoprotein Prp31 (Homo sapiens), Q8WWY3 (parent)
chain: MSLADELLADLEEAAEEEEGGSYGEEEEEPAIEDVQEETQLDLSGDSVKTIAKLWDSKMFAEIMMKIEEYISKQAKASEVMGPVEAAPEYRVIVDANNLTVEIENELNIIHKFIRDKYSKRFPELESLVPNALDYIRTVKELGNSLDKCKNNENLQQILTNATIMVVSVTASTTQGQQLSEEELERLEEACDMALELNASKHRIYEYVESRMSFIAPNLSIIIGASTAAKIMGVAGGLTNLSKMPACNIMLLGAQRKTLSGFSSTSVLPHTGYIYHSDIVQSLPPDLRRKAARLVAAKCTLAARVDSFHESTEGKVGYELKDEIERKFDKWQEPPPVKQVKPLPAPLDGQRKKRGGRRYRKMKERLGLTEIRKQANRMSFGEIEEDAYQEDLGFSLGHLGKSGSGRVRQTQVNEATKARISKTLQRTLQKQSVVYGGKSTIRDRSSGTASSVAFTPLQGLEIVNPQAAEKKVAEANQKYFSSMAEFLKVKGEKSGLMST
partner: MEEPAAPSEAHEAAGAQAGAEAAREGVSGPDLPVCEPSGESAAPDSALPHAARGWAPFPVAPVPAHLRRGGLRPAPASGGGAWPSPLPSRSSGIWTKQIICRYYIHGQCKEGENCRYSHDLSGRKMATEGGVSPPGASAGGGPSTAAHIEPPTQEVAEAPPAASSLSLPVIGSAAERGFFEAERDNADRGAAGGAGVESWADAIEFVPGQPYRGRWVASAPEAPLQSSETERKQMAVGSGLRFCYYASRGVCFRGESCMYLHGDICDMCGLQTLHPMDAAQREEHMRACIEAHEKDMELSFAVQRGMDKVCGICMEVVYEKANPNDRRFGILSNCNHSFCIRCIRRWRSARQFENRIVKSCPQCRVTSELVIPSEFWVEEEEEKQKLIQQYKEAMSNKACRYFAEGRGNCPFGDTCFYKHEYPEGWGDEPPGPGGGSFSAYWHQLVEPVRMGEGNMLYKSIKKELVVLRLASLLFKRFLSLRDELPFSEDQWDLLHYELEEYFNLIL

Variants of: B1
Conditions: with sumo5_human SUMO1P1, G2XKQ0

| Variant | effect of a mutation on the interaction |
| --- | --- |
| R202H | with no effect |

Variants of: B2
Conditions: with nud12_human NUDT12, Q9BQG2
nud12_human NUDT12, Q9BQG2, sequence (Q9BQG2 whole entry): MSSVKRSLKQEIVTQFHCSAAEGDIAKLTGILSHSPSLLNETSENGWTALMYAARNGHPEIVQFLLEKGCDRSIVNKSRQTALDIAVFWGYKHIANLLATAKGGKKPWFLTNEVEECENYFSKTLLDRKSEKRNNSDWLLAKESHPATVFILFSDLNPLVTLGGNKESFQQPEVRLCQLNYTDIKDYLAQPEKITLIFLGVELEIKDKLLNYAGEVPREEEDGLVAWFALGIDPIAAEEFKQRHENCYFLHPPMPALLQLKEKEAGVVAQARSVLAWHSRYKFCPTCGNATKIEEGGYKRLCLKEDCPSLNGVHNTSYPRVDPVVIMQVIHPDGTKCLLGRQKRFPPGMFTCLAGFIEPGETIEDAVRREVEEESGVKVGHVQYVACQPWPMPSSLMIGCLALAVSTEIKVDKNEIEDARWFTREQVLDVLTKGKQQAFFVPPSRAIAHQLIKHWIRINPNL

| Variant | effect of a mutation on the interaction |
| --- | --- |
| I443V | with no effect |

Variants of: B3
Conditions: with TCF12, Q99081-3
TCF12, Q99081-3, sequence (Q99081 other isoform, or with tags, fused parts or gaps): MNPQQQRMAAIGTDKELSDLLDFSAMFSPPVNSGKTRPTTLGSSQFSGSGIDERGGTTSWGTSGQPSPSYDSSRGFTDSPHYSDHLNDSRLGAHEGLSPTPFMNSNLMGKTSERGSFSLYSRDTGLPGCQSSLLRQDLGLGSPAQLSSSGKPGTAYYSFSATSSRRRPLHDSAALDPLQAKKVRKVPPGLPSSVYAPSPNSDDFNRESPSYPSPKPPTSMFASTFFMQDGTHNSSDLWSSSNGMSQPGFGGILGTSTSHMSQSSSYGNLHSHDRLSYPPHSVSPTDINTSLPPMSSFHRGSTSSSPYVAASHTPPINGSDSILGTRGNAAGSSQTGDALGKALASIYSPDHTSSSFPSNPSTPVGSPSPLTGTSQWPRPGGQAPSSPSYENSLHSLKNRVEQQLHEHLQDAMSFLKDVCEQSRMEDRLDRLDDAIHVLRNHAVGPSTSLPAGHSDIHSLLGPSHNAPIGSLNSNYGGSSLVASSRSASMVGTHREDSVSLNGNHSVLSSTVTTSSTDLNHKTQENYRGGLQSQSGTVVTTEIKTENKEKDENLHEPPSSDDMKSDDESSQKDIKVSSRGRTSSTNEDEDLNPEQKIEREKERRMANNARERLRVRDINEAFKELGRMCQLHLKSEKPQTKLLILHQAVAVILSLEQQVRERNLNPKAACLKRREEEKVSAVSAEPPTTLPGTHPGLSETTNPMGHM

| Variant | effect of a mutation on the interaction |
| --- | --- |
| F199S | disrupting interaction strength |
| G167R | disrupting interaction strength |

Variants of: B4
Conditions: with nlk_human NLK

| Variant | effect of a mutation on the interaction |
| --- | --- |
| P248L | with no effect |
| R432C | disrupting interaction strength |
| P451L | disrupting interaction strength |
| A9D | disrupting interaction strength |

Variants of: B5
Conditions: with go45_human BLZF1, Q9H2G9

| Variant | effect of a mutation on the interaction |
| --- | --- |
| I170V | with no effect |
| N197I | with no effect |

Variants of: B6
Conditions: with mkrn3_human MKRN3, Q13064

| Variant | effect of a mutation on the interaction |
| --- | --- |
| L107V | with no effect |
